In patent publication US20230034906A1 (TRINOMAB BIOTECH, published 2023):
Positions count from the first letter of the chain named.

How the values were obtained:
Test in all cases: indirect ELISA, antibody titrated on gB glycoprotein mutant
[1] = target: T1, gB_Towne protein with N417 mutated into glutamine (human cytomegalovirus, strain Towne, UniProt F5HB53 25-700)
T1 chain: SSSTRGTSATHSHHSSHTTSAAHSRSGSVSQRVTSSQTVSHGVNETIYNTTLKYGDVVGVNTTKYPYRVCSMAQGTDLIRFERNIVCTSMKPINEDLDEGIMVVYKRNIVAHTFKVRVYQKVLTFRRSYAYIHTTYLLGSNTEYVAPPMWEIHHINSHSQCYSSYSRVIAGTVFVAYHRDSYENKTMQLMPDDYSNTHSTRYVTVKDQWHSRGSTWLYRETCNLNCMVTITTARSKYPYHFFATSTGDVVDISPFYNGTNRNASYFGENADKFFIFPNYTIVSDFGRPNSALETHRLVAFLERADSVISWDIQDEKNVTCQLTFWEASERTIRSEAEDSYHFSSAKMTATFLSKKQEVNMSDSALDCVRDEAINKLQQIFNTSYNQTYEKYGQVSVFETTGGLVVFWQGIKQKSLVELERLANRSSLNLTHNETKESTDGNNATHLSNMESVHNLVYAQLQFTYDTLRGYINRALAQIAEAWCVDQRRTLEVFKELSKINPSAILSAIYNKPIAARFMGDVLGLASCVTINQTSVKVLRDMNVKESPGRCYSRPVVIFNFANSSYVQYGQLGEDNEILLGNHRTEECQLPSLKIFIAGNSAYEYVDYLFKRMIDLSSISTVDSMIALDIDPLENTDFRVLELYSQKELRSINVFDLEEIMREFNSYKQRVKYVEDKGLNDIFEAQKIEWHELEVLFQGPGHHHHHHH

[2] = target: T2, gB_Towne protein with N405 mutated into glutamine (human cytomegalovirus, strain Towne, UniProt F5HB53 25-700)
T2 chain: T1 chain with N381Q, Q393N

[3] = target: T3, gB_Towne protein with N452 mutated into glutamine (human cytomegalovirus, strain Towne, UniProt F5HB53 25-700)
T3 chain: T1 chain with Q393N, N428Q

[4] = target: T4, gB_Towne protein with N409 mutated into glutamine (human cytomegalovirus, strain Towne, UniProt F5HB53 25-700)
T4 chain: T1 chain with N385Q, Q393N

Measured: binding result

B1: TRN1019 (antibody, V domains shown)
VH: QVQLVQSGAEVKKPGESLKISCKGSGYTFTNYWIGWVRQMPGAGLEWMAIIFPRDSYSAYSPSFQGRVTISVDKSISTAYLHWSSLEASDTAVYYCAIYNDLRSGNSWGQGTPLIVSS
VL: DIQMTQSPSSLSASVGDRVTITCRASQSITKYLNWYQQKPGRAPKLLIHTTSTLQSGVPSRFSGSGSGTDFTLTISSLQLEDFGTYYCQQSFSTLWTFGQGTKLDIKR
notes: Fully human antibody; kappa light chain
binds: all assays above
